Data: US20020031761A1, “Binding moieties for human parvovirus B19” (priority 1998, published 2002)
No end group written: not given here.

Assays:
[1] = biological target: VP1-VP2 (purified, recombinant B19 capsid proteins VP1 and VP2) (Human parvovirus B19, UniProt P07299); experiment: ELISA of individual phage isolates for binding to VP1-VP2; settings: phage isolate 10^9 pfu per well; VP1-VP2 2 μl per well on dextrin plates; HRP anti-M13 antibody, TMB
From the text: For screening libraries to isolate binding moieties for parvovirus B19, a surrogate target was obtained, consisting of purified, recombinant B19 capsid proteins VP 1 and VP2 (VP1-VP2). Suitable preparations of VP1-VP2 can be made according to methods described in U.S. Pat. No. 5,498,413 or WO 91/12269, incorporated herein by reference. Prior to screening against phage display libraries, partially purified VP1-VP2 was immobilized on dextrin-coated microtiter wells (Recti-Bind™; Pierce Chemical Co.) and tested using standard ELISA techniques, to ensure that under the screening conditions there was a low background level of phage recovered.
From convergent screens of phage display libraries, eluted phage were propagated and 376 phage isolates were selected randomly and individually tested for binding to VP1-VP2 by standard ELISA techniques, using a polyclonal anti-phage antibody to detect bound phage. Briefly, VP1-VP2 (2 μl per well) was coated on dextrin plates, blocked with BSA, and individual phage isolates were added to the wells (50 μl, 10^9 pfu per well). After washing, bound phage were incubated with the detection anti-phage antibodies (100 μl per well HRP-conjugated anti-M13 antibody in PBS-Tween (Pharmacia Inc.)). […] The bound antibody was detected by adding 100 μl per well of two-component TMB (tetramethylbenzidine; Kirkegaard & Perry). […]

[2] = biological target: VP1-VP2 (Human parvovirus B19, UniProt P07299); experiment: Relative binding ELISA, constant phage against decreasing amounts of VP1-VP2; settings: signal interpolated at VP1-VP2 1:10 dilution; binding data normalized as percent of OD 630 nm
Protocol: Based on the ELISA data and the sequence similarities within each library, the 18 isolates (Tables 1-3) were selected and evaluated further with respect to their binding characteristics to VP1-VP2. Relative binding of each isolate was studied by ELISA. Each selected phage isolate, held at a constant amount, was contacted with decreasing amounts per well of VP1-VP2, the amounts coating each dextrin well varying from 2 μl down to 0.001 μl. Bound phage were detected as described before using polyclonal anti-phage antibody. […] Using VP1-VP2 at 1:10 dilution as an arbitrary point, a value for the signal was interpolated, and the relative binding strengths are reflected in Tables 1-3, above.

Sequence: A F C W L W P G N C L H (AFCWLWPGNCLH; not fully specified; cysteine pairing not given here) [C01]
- ELISA signal [1]: 1.5
- relative binding [2]: 44
